From the RNAGym collection of RNA variant scans (doi:10.7554/elife.80360) come the findings set out here.

To fix the notation:
B1: Hairpin Ribozyme (parent)
chain: GUCCUCUUUCACGUGCGCGUGAAAGAGAGAAGUGAACCAGAGAAACACACGUUGUGGUAUAUUACCUGGUA

The variants in the series derive from B1. Nature of the series: self-cleavage, relative activity (ratio to wild type); higher = more cleavage; co-transcriptional.
GUCCUCUUUCACGUGCGCGUGAAAGAGAGAAGUGAACCAGAGAAACACACGUUGUGGUAUAUUACGUGGGA: the self-cleavage is 0.2. For GUCCUCUUUCUCGUGCGCGUGAAAGAGAGAAGUGAACCAGAGAAACACACGUUGUGGUAGAUUACCUGGUA, the self-cleavage was found to be 0.509. As to GUCCUCUUUCACGUGCGCGUGAAAGAGAGAAGUUAACCAGAGCAACACACGUUGUGGUAUAUUACCUGGUA, the self-cleavage was 0.0997.

For the variant GUCCUCUUUCACGUGCACGUGAAAGAGAGUAGUGAACCAGAGAAACACACGUUGUGGUAUAUUACCUGGUA, the self-cleavage is 0.0442. Turning to GUCCUCUUUCACGUGCGCGUGAAAGAGAGAAGUGAACCAGAGACACACACGUUGUGGUAUAUUAUCUGGUA, the self-cleavage stood at 0.142. Turning to GUCCUCUUUCACGUGCGCGUGAAAGAGAGAAGUGAACCAAAGAAACACACGUUGUGGUAUAUUAGCUGGUA, the self-cleavage is 0.0639. Consider GUCCUCUUUCACGUGCGCGUGAAGGAGAGAAGUGAUCCAGAGAAACACACGUUGUGGUAUAUUACCUGGUA, for which the self-cleavage is 0.397. The same measure for GUCCUCUUUCACGUGCGCGUGAAAGAGAGAAGUGAACCAGCGAAACACACGUUAUGGUAUAUUACCUGGUA: 0.829. As to GUCCUCUUUGACGUGCGCGUGAAAGAGAGAAGUGAACCAGAGAAACACACGUUGUCGUAUAUUACCUGGUA, the self-cleavage was 0.149.

On to GUCCUCUUUCACGUGCGCGUGAAAGAGAGAAGUGAACCAGAGAAACACAGGUUGUGGUAUAUUACCUGGUA, for which the self-cleavage is 0.275.

GUCCUCUUUCACGUGCGCGUGAAAGAGAGUAGUGAACCAGAGAAACACACGUUGUGGUAUAUUACCUGGUC: the self-cleavage was determined as 0.299. For GUCCUCUUUCACGUGCGCGUGAAAGAGAGAAGUGCACCAGAUAAACACACGUUGUGGUAUAUUACCUGGUA, the self-cleavage turned out to be 0.342. GUCCUCUUUCACGUGCCCGUGAAAGAGAGAAGUGAACCAGAGAAACACACGUAGUGGUAUAUUACCUGGUA: the self-cleavage is 0.936.

Take GUCCUCUUUCACGUGGGCGUGAAAGAGAGAAGUGAACCAGAGAAACACACGUUGUGGUAUAUUCCCUGGUA: the self-cleavage is 0.161. On to GUCCUCUUUCACGUGCGCGUGAAAGAGCGAAGUGAACCAGAGAAACAGACGUUGUGGUAUAUUACCUGGUA, for which the self-cleavage worked out at 0.128.

On to GUUCUCUUUCACGUGCGCGUGGAAGAGAGAAGUGAACCAGAGAAACACACGUUGUGGUAUAUUACCUGGUA, for which the self-cleavage was 0.603.

Consider GUCCUCUUUCACGUGCGCGUGAAAGAGAGAAGUGAACCAGCGAAACAUACGUUGUGGUAUAUUACCUGGUA, for which the self-cleavage came to 0.183. With GUUCUCUUUCACGUGCGCGUGAAAGAGAGAAGUGAUCCAGAGAAACACACGUUGUGGUAUAUUACCUGGUA, the self-cleavage was 0.33. As to GUCCUCUUUCACGUGCGCGUGAAAGAGAGAAGUGAAUCAGAGAAACACACGUUGUGUUAUAUUACCUGGUA, the self-cleavage was 0.221. For GUUCUCUUUCACGUGCGCGUGAAAGAGAGAAGUGAACCAGAGAAACACACGUGGUGGUAUAUUACCUGGUA the value was 0.517. For GUCCUCUUUGCCGUGCGCGUGAAAGAGAGAAGUGAACCAGAGAAACACACGUUGUGGUAUAUUACCUGGUA the value was 0.799; for GUCCUCUUUCACGUGCGCGUGAAAGAGAGAAGUGAACCAGAGAAACACACGUUGUGGAAUAUUAACUGGUA, 0.503. The same measure for GUCCUCUUUCACGUGCGCGUGAUAGAGAGAAGUGAACCAGGGAAACACACGUUGUGGUAUAUUACCUGGUA: 0.749. As to GUCCUCUUUCACGUGCUCGUGAAAGAGAGAAGUGAACUAGAGAAACACACGUUGUGGUAUAUUACCUGGUA, the self-cleavage turned out to be 0.519. Turning to GACCUCUUUCACGUGCGCGUGAAAGAGAGAAGUGAACCAGAGAAACACACGUUGUGGUAUAUUACCUCGUA, the self-cleavage worked out at 0.154.

On to GUCCUCUUUCACGUGCGGGUGAAAGAGAGAAGUGAACCAGAGACACACACGUUGUGGUAUAUUACCUGGUA, for which the self-cleavage amounted to 0.164. In the case of GUCCUCUUUCACGUGCGCGUGAAAGAGAGAAGUGAACCAGAGAAACACACGUUGUGGUCUAUUACCUGGAA, the self-cleavage worked out at 0.112. Take AUCCUCUUUCACGUGCGCGUGAAAGAGAGAAGUGAACCAGAGAUACACACGUUGUGGUAUAUUACCUGGUA: the self-cleavage was determined as 0.17. In the case of GUCCUCUUUCACGUGCGCGUGAAAGAGAGAAGUGAACCAGAGAAAUACACGUUGUGGUAUAUCACCUGGUA, the self-cleavage is 0.106. GUCCUCUUUCACGGGCGCGUGUAAGAGAGAAGUGAACCAGAGAAACACACGUUGUGGUAUAUUACCUGGUA: the self-cleavage was found to be 0.683.

On to GUCCUCUUUCACGUGCGCGUUAGAGAGAGAAGUGAACCAGAGAAACACACGUUGUGGUAUAUUACCUGGUA, for which the self-cleavage stood at 0.772. As for GUCCUCUUUCACGUGCGCGUAAAAGAGAGAAGUGAACCAGAGAAACACACGUUGUGGUAUAUUUCCUGGUA, the self-cleavage stood at 0.178. The same measure for GUCCUCUUUCACGUGCGCGGGAAAGAGAGAAGUGAACCAGAGAUACACACGUUGUGGUAUAUUACCUGGUA: 0.0389. As for GUCCUCUUUCACGUGCGCGUGAAAGAGAGAAGUGAACCAGAGAAACACUCGUUGUGGUAUAUUACCUCGUA, the self-cleavage came to 0.14. For GACCUCUUUCACGUGCGCGUGAAAGAGAUAAGUGAACCAGAGAAACACACGUUGUGGUAUAUUACCUGGUA, the self-cleavage was found to be 0.111. The same measure for GUCCUCUUUCACGUGCGCGUGAAAGAGGGAAGUGAACCAGAGAAACACACGUUUUGGUAUAUUACCUGGUA: 0.541; for GUCCUCUUUCACGUGCGCGUAAAAGAGGGAAGUGAACCAGAGAAACACACGUUGUGGUAUAUUACCUGGUA: 0.979; for GUCCUCUUUCACGUGCGCGUGAAAGAGAGAAGUGAACCACAGAAACACACGUUCUGGUAUAUUACCUGGUA: 0.114.

As to GUCCUCUUUCACGUGCGCGUGAAAGAGAGAAGUGAACCAGAGAAACACACGUUGCGGUAUAUUACCGGGUA, the self-cleavage came to 0.113.

With GUCCUCUUUCACGUGCGCGUGAAAGAGUGAAGUGAACCAGAGAAACACACGUUGUUGUAUAUUACCUGGUA, the self-cleavage was 0.0609. Regarding GCCCUCUUUCACGUGCGCGUGAAAGAGAGAAGUGAACCAGAGCAACACACGUUGUGGUAUAUUACCUGGUA, the self-cleavage is 0.0996. As for GUCCUCUUUCACGUGCGCGUGAAAGAGAGAAGUGAACCAGAGAAACACACGUUGUGGUAUAUUACCUAGGA, the self-cleavage turned out to be 0.3.

As for GUCCUCUUUCACGUGCGCGUGAAAGAGAGAAGUGAGCCAGAGAAACACACAUUGUGGUAUAUUACCUGGUA, the self-cleavage turned out to be 0.943.

For the variant GUCCUCUUUCACGUGAGCGUGAAAGAGAGAAGUGAACCAGAGAAACCCACGUUGUGGUAUAUUACCUGGUA, the self-cleavage was 0.365. For GUCCUCUUUCGCGUGCGCGUGAAAGAGAGAAGUGAACCAGAGAAACACACUUUGUGGUAUAUUACCUGGUA the value was 0.713; for GUCCUCUUUCACGUCCGCGUGAAAGAGAGAAGUGAGCCAGAGAAACACACGUUGUGGUAUAUUACCUGGUA, 1.06. Regarding GUCCUCUUUCACGCGCGCGUGAAAGAGAGAAGUCAACCAGAGAAACACACGUUGUGGUAUAUUACCUGGUA, the self-cleavage came to 1.5.

For GUCCUCUUCCACGUGCGCGUGAAAGAGAGAUGUGAACCAGAGAAACACACGUUGUGGUAUAUUACCUGGUA, the self-cleavage is 0.153.

As for GUCCUCUUUCACGUGCGCGUGAAAGAGAGAAGUGAACCAGCGAAACACACGUUGUGGUCUAUUACCUGGUA, the self-cleavage amounted to 0.17. For GUCCUCUUUCACGUGCGCGUGAAAGAGAGAAGUGAACCAGGGAAACACACGUUGUGGUAUAAUACCUGGUA the value was 0.0775. For GUCCUCUUUCACCUGCGCGUGAAAGAGAGAAGUGAACCAGAGAAACGCACGUUGUGGUAUAUUACCUGGUA the value was 0.21; for GUCCUCUUUCACGUGCGCGUGAAAGAGAGAAGUGAACCAGAGAAACACACGUCGUGGUAUAUUACCUGAUA, 0.607. Consider GUCCUCUUUCACGUGCGCGUGAAAGAGAGAAGUGAGCCAGAGAAACACACGUUGUGGUAUAUUAGCUGGUA, for which the self-cleavage stood at 0.138. In the case of GUCCUCUUUCACGCGCGCGUGAAAGAGAGAAGUGACCCAGAGAAACACACGUUGUGGUAUAUUACCUGGUA, the self-cleavage worked out at 0.476. For GUCCUCUCUCACGCGCGCGUGAAAGAGAGAAGUGAACCAGAGAAACACACGUUGUGGUAUAUUACCUGGUA the value was 0.802. GUUCUCUUUCACGUGCGCGUGAAAGAGAGAAGUGAACCAGACAAACACACGUUGUGGUAUAUUACCUGGUA: the self-cleavage was 0.218. For GUCCUCUUUCACGUGCGCGUGAAAGAGAGAAGUGAACCAGAGAAACACACGUUGUGGUAUAUAGCCUGGUA the value was 0.0955. As to GUCCUCUUUCACGUGCGCGUGAAAGAAAGAAGUGAAACAGAGAAACACACGUUGUGGUAUAUUACCUGGUA, the self-cleavage came to 0.219.

Turning to AUCCUCUUUGACGUGCGCGUGAAAGAGAGAAGUGAACCAGAGAAACACACGUUGUGGUAUAUUACCUGGUA, the self-cleavage amounted to 0.207. The same measure for GUCCUCUUUCACGUCCGCGUGAAAGAGAGAAGUGAACCAGAGAAACACACGUUGUGGUUUAUUACCUGGUA: 0.224; for GACAUCUUUCACGUGCGCGUGAAAGAGAGAAGUGAACCAGAGAAACACACGUUGUGGUAUAUUACCUGGUA: 0.165. With GUCCUCCUUCACGUGCGCGUGAAAGAGAGAAGUGAACCAGAGAAACACACGUUGUGGCAUAUUACCUGGUA, the self-cleavage was determined as 0.775.

Consider GUCGUCUUUCACGUGCGCGUGAAAGAGAGAAGUGAACCAGAGAAACACACGUUGUGGUAUAUUAGCUGGUA, for which the self-cleavage came out at 0.178.

Regarding GUCCUCUUUCACGUGCGCGUGAAAGAGAGAAGUGAACCAGAGAAACACACGUUUUGGUAGAUUACCUGGUA, the self-cleavage worked out at 0.29. With GUCCUCUUUCACGUGCGCGUGAAAGAGAAAAGUGAACCAUAGAAACACACGUUGUGGUAUAUUACCUGGUA, the self-cleavage was determined as 0.0938.

For GUCCUCUUUCACGUGCGCGUGAAAGAGAGAAGUGAACCAGAGACACACACGUUGUGGUAUAUGACCUGGUA, the self-cleavage stood at 0.182. Take GUCCUCUUUCACGUGCGCGUGAAAGAGAGAAGUGAACCAGAGAAACACACGUCGUGGUAUAUUAACUGGUA: the self-cleavage is 1.06. For the variant GUACUCUUUCACGUGCGCGUGAAAAAGAGAAGUGAACCAGAGAAACACACGUUGUGGUAUAUUACCUGGUA, the self-cleavage stood at 0.457. GUCCUCUUUAACGUGCGCGUGAAAGAGAGAAGUGAACCAGAGAAACACACGUUGUGGUAUACUACCUGGUA: the self-cleavage turned out to be 0.241.

Turning to GUCCUCUUUCACGUGCGCGCGUAAGAGAGAAGUGAACCAGAGAAACACACGUUGUGGUAUAUUACCUGGUA, the self-cleavage amounted to 0.602. As for GUCCUCUUACGCGUGCGCGUGAAAGAGAGAAGUGAACCAGAGAAACACACGUUGUGGUAUAUUACCUGGUA, the self-cleavage was 0.473. GUCCUCUUUCACGUGCGGGUGAAAGAGAGAAGUUAACCAGAGAAACACACGUUGUGGUAUAUUACCUGGUA: the self-cleavage came out at 1.32.

Regarding GUCCUCUUUCACGUGCGCCUGAAAGAGAGAAGUGAACCAGAGAAACGCACGUUGUGGUAUAUUACCUGGUA, the self-cleavage amounted to 0.277. Consider GUCCUCUUUCACGCGCGCGUGAAAGAGAGAAGUGAACCAGAGAAACACAAGUUGUGGUAUAUUACCUGGUA, for which the self-cleavage turned out to be 0.0893.

In the case of GUCCUCUUUCACGUGCGCGUGAAAGAGAGAAGUGAACCAGAGGAACACACGUUGUGGUAUAUUACAUGGUA, the self-cleavage was found to be 0.171.

On to GUCCUCUUUCACGUGCGCGUGAAAGAGAGAAGUGAACCAGAGAAACACACGUUGUGGUAUAUUACUUGGAA, for which the self-cleavage was determined as 0.356.
